According to article PMC4919432, “The Dimeric Architecture of Checkpoint Kinases Mec1^ATR and Tel1^ATM Reveal a Common Structural Organization*” (The Journal of Biological Chemistry, 2016):

Target: T1, Mec1 (yeast (budding yeast), UniProt P38111 1-2368)
T1 construct: Mec1, yeast orthologue of mammalian ATR; 2,368 amino acids as the introduction says; The Mec1 subunit of m1, for the rows of two subunits; also called Mec1^ATR; yeast orthologue of ATR; source: yeast, overexpressed from pBL904 together with Ddc2, purified as the Mec1·Ddc2 complex (IgG-Sepharose, HRV 3C cleavage)
T1 sequence (P38111 whole entry): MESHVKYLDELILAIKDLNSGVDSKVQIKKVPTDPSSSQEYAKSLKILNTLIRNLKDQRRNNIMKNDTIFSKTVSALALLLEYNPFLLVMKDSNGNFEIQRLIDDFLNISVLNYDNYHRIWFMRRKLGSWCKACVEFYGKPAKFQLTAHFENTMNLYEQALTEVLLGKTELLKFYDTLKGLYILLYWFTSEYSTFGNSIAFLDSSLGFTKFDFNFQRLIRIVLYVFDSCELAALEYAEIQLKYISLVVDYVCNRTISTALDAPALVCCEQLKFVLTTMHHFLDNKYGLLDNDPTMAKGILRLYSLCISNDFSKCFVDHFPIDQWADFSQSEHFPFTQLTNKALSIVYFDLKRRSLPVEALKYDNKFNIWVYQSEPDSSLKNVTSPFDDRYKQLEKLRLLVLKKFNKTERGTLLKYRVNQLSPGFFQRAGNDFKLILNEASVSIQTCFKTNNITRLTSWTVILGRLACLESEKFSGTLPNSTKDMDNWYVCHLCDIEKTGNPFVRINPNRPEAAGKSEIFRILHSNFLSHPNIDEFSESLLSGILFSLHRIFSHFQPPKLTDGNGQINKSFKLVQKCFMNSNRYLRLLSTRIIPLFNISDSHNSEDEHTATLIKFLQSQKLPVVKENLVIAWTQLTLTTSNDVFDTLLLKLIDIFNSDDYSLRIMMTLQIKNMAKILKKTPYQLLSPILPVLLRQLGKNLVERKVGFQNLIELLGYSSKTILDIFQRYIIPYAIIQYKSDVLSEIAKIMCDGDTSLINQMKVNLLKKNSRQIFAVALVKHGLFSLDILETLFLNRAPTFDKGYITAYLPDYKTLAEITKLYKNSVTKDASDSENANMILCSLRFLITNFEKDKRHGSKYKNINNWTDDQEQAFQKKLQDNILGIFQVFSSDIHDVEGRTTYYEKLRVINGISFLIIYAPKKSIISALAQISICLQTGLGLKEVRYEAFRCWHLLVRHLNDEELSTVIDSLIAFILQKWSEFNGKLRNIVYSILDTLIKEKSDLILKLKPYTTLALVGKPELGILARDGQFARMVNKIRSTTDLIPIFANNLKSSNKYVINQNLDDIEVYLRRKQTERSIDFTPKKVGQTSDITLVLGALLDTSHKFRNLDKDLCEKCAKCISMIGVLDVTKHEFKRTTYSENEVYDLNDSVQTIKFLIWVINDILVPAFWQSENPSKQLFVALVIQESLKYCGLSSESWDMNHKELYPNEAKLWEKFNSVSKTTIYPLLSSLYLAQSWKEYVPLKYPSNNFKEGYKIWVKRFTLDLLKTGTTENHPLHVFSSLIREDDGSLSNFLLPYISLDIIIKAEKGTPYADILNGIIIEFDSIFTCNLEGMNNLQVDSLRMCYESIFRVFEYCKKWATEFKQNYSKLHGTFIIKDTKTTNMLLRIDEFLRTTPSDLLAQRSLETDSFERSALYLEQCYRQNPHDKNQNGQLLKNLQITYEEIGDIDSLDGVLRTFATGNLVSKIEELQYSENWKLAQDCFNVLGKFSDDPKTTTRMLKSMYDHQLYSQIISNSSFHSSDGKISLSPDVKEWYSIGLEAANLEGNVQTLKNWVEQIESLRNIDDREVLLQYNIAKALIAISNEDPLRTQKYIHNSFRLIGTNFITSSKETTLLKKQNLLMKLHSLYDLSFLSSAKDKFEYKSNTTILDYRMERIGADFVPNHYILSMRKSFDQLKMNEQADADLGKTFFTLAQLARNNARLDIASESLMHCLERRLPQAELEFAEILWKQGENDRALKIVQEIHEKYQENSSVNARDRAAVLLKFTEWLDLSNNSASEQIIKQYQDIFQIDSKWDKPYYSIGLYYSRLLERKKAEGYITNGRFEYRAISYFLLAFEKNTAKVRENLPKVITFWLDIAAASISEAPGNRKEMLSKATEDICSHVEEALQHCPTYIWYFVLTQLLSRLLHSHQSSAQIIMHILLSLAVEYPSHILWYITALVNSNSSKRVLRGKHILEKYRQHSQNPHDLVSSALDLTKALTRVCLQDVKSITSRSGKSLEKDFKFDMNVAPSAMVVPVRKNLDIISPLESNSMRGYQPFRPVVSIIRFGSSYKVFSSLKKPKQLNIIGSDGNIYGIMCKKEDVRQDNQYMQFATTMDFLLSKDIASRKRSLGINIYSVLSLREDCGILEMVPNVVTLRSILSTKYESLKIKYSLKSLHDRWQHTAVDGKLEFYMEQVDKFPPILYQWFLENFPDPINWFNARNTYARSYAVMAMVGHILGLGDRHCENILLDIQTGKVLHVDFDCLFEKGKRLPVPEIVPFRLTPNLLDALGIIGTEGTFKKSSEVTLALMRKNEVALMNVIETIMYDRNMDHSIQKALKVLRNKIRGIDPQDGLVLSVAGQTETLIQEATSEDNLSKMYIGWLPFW
Assay: SEC; Mec1·Ddc2 on Superose 6 HR 10/30, 0.3 ml/min; 50 mM HEPES-KOH pH 7.4, 200 mM KCl, 10% glycerol, 0.1% Tween 20, 0.01% Nonidet P-40, 1 mM EDTA, 1 mM EGTA, 2 mM DTT; size against Bio-Rad gel filtration standards; peak fractions on SDS-PAGE
Conditions: both partners purified

B1: Ddc2 (natural protein, yeast (budding yeast), UniProt Q04377 1-747, looked up)
chain: MRRETVGEFSSDDDDDILLELGTRPPRFTQIPPSSAALQTQIPTTLEVTTTTLNNKQSKNDNQLVNQLNKAQGEASMLRDKINFLNIEREKEKNIQAVKVNELQVKHLQELAKLKQELQKLEDEKKFLQMEARGKSKREVITNVKPPSTTLSTNTNTITPDSSSVAIEAKPQSPQSKKRKISDNLLKKNMVPLNPNRIIPDETSLFLESILLHQIIGADLSTIEILNRLKLDYITEFKFKNFVIAKGAPIGKSIVSLLLRCKKTLTLDRFIDTLLEDIAVLIKEISVHPNESKLAVPFLVALMYQIVQFRPSATHNLALKDCFLFICDLIRIYHHVLKVPIHESNMNLHVEPQIFQYELIDYLIISYSFDLLEGILRVLQSHPKQTYMEFFDENILKSFEFVYKLALTISYKPMVNVIFSAVEVVNIITSIILNMDNSSDLKSLISGSWWRDCITRLYALLEKEIKSGDVYNENVDTTTLHMSKYHDFFGLIRNIGDNELGGLISKLIYTDRLQSVPRVISKEDIGMDSDKFTAPIIGYKMEKWLLKLKDEVLNIFENLLMIYGDDATIVNGEMLIHSSKFLSREQALMIERYVGQDSPNLDLRCHLIEHTLTIIYRLWKDHFKQLREEQIKQVESQLIMSLWRFLVCQTETVTANEREMRDHRHLVDSLHDLTIKDQASYYEDAFEDLPEYIEEELKMQLNKRTGRIMQVKYDEKFQEMARTILESKSFDLTTLEEADSLYISMGL
notes: Ddc2 (also called Lcd1 or Pie1), yeast orthologue of ATRIP; The Ddc2 subunit of m1, for the rows of two subunits; also called Lcd1; Pie1; source: yeast, overexpressed from pBL904 together with Mec1, purified as the Mec1·Ddc2 complex (IgG-Sepharose, HRV 3C cleavage)
Question: Does B1 bind?
Answer: Result: binds
